In patent US20070086998A1:
Residue numbers refer to the chain shown, from its start.

B1: MS-GPC-8-27-41 (IgG4 form) (antibody, V domains shown)
VH: QVELKESGPALVKPTQTLTLTCTFSGFSLSTSGVGVGWIRQPPGKALEWLALIDWDDDKYYSTSLKTRLTISKDTSKNQVVLTMTNMDPVDTATYYCARSPRYRGAFDYWGQGTLVTVSS
VL: DIVLTQPPSVSGAPGQRVTISCSGSESNIGNNYVQWYQQLPGTAPKLLIYDNNQRPSGVPDRFSGSKSGTSASLAITGLQSEDEADYYCQSYDMNVHVFGGGTKLTVLG
B2: MS-GPC-8-6 (Fab) (Fab, V domains shown)
VH: B1 VH with E3Q
VL: B1 VL with E26S, N31S, Q35S, M94Y, N95D, V96H, H97Y
B3: MS-GPC-8-6-13 (IgG4 form) (antibody, V domains shown)
VH: B1 VH
VL: B1 VL with N31A, Q35T, M94Y, N95D, V96H, H97Y
B4: MS-GPC-8-Fab (Fab, V domains shown)
VH: B1 VH with E3Q
VL: B1 VL with E26S, N31S, Q35S, N95P, V96Q, H97A
B5: MS-GPC-8-17 (Fab) (Fab, V domains shown)
VH: B1 VH with E3Q
VL: B1 VL with E26S, N31S, Q35S, M94F, N95S, H97Y
B6: MS-GPC-8-10-57 (IgG4 form) (antibody, V domains shown)
VH: B1 VH
VL: B1 VL with M94L, N95I, V96R

Biological target: HLA-DR as expressed on the tumor cell line
Test: cell-based or functional assay

Binder | % Killing by mAb; ARH-77 (DR 12); 50 nM, 4 h [%] | % Killing by mAb; BJAB (DR 12,13); 50 nM, 4 h [%] | % Killing by mAb; BONNA-12; 50 nM, 4 h [%] | % Killing by mAb; DOHH-2 (DR 1,2); 50 nM, 4 h [%] | % Killing by mAb; EOL-1; 50 nM, 4 h [%] | % Killing by mAb; GRANTA-519 (DR 2,11); 50 nM, 4 h [%] | % Killing by mAb; HC-1; 50 nM, 4 h [%] | % Killing by mAb; HD-MY-Z; 50 nM, 4 h [%] | % Killing by mAb; HDLM-2; 50 nM, 4 h [%] | % Killing by mAb; KARPAS-299 (DR 1,2); 50 nM, 4 h [%] | % Killing by mAb; KARPAS-422 (DR 2,4); 50 nM, 4 h [%] | % Killing by mAb; KM-H2; 50 nM, 4 h [%] | % Killing by mAb; L1236; 50 nM, 4 h [%] | % Killing by mAb; L-363; 50 nM, 4 h [%] | % Killing by mAb; L-428 (DR 12); 50 nM, 4 h [%] | % Killing by mAb; LP-1; 50 nM, 4 h [%] | % Killing by mAb; MHH-CALL-4 (DR 1,2); 50 nM, 4 h [%] | % Killing by mAb; MHH-PREB-1; 50 nM, 4 h [%] | % Killing by mAb; MN-60 (DR 10,13); 50 nM, 4 h [%] | % Killing by mAb; NALM-1 (DR 1,4); 50 nM, 4 h [%] | other results
B1 | 85 | 71 | 92 | 59 | 69 | 78 | 93 | 69 | 88 | 82 | 66 | 86 | 63 | 26 | 91 | 73 | 63 | 4 | 69 | 82 | % Killing by mAb; RAJI (DR 10,17); 50 nM, 4 h: 84%; % Killing by mAb; RPMI-8226; 50 nM, 4 h: 29%; % Killing by mAb; SR-786 (DR 1,2); 50 nM, 4 h: 53%; killing of melanoma cell line WM 115: 21%
B2 | – | – | – | – | – | – | – | – | – | – | – | – | – | – | – | – | – | – | – | – | maximum capacity to kill MHH-Call 4 cells: 76%
B3 | 87 | 64 | 86 | 53 | 53 | 73 | 93 | 72 | 90 | 76 | 71 | 87 | 66 | 19 | 92 | 73 | 43 | 11 | 67 | 65 | % Killing by mAb; RAJI (DR 10,17); 50 nM, 4 h: 83%; % Killing by mAb; RPMI-8226; 50 nM, 4 h: 19%; % Killing by mAb; SR-786 (DR 1,2); 50 nM, 4 h: 26%
B4 | – | – | – | – | – | – | – | – | – | – | – | – | – | – | – | – | – | – | – | – | maximum capacity to kill MHH-Call 4 cells: 65%
B5 | – | – | – | – | – | – | – | – | – | – | – | – | – | – | – | – | – | – | – | – | maximum capacity to kill MHH-Call 4 cells: 78%
B6 | 88 | 67 | 91 | 60 | 49 | 78 | 86 | 57 | 84 | 79 | 68 | 88 | 66 | 24 | 91 | 70 | 46 | 8 | 66 | 78 | % Killing by mAb; RAJI (DR 10,17); 50 nM, 4 h: 86%; % Killing by mAb; RPMI-8226; 50 nM, 4 h: 26%; % Killing by mAb; SR-786 (DR 1,2); 50 nM, 4 h: 44%
